The assay has as its target recombinant human ACE2 receptor (SinoBiological) (human) (UniProt Q9BYF1).
UniProt Q9BYF1, sequence (Q9BYF1 18-740 limits assumed): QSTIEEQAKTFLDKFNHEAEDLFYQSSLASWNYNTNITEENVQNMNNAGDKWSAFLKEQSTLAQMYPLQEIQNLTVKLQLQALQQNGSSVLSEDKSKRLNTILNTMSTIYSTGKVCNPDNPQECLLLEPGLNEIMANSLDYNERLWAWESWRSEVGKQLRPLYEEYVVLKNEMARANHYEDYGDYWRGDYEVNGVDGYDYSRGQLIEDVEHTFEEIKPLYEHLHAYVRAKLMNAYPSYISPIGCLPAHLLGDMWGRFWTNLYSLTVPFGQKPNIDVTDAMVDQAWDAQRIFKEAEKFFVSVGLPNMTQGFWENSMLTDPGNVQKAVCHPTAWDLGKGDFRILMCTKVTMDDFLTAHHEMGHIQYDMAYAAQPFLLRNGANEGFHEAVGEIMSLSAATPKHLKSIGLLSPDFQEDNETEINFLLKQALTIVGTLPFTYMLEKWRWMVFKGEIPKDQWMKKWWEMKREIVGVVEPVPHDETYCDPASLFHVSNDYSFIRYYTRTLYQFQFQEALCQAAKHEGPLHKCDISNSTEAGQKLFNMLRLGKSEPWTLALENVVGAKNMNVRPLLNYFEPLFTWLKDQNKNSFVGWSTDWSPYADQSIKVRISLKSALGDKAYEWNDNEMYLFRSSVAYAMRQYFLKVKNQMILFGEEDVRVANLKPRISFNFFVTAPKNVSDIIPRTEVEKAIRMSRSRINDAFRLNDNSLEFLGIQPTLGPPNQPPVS

On to “RBD-omicron B.1.1.529 (RBD-C-tag) (other; other documents disagree on this pair)”, for which the fold higher binding activity than the reference Wuhan RBD-C-tag amounted to 4 fold.
The result for “RBD-omicron BA.5 (RBD-C-tag) (other; other documents disagree on this pair)” reads 8 fold.

The values above are taken from patent US20250042949A1.
